Results as given in PMC7129694 (Clinical Microbiology and Infection, 2005).

Biological target: Purified recombinant rClfB protein (clumping factor B of Staphylococcus aureus) (Staphylococcus aureus, UniProt O86476 45-877)
Sequence (O86476 45-877): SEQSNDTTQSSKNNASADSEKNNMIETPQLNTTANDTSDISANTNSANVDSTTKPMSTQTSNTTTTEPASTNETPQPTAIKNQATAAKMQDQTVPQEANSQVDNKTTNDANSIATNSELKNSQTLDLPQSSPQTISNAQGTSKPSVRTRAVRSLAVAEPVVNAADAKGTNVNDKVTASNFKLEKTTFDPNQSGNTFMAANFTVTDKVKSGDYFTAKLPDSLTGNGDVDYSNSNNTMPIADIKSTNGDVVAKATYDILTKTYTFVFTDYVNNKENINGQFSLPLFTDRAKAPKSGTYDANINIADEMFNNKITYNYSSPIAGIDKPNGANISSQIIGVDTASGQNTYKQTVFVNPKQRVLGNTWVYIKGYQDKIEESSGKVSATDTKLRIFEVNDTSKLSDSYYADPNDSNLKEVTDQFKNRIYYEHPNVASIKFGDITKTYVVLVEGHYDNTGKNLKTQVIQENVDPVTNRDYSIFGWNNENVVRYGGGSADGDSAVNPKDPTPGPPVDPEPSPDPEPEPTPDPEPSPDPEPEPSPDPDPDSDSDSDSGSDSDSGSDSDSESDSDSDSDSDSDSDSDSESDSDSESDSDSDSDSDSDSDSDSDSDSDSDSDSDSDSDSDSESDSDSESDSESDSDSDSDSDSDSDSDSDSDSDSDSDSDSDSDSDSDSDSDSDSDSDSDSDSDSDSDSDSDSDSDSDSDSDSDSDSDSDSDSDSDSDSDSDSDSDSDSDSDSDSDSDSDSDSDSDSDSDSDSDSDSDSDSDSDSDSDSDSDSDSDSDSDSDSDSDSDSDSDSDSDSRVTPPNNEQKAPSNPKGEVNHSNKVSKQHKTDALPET

B1: Purified recombinant human cytokeratin 10 (natural protein, UniProt P13645 1-584, looked up)
chain: MSVRYSSSKHYSSSRSGGGGGGGGCGGGGGVSSLRISSSKGSLGGGFSSGGFSGGSFSRGSSGGGCFGGSSGGYGGLGGFGGGSFRGSYGSSSFGGSYGGIFGGGSFGGGSFGGGSFGGGGFGGGGFGGGFGGGFGGDGGLLSGNEKVTMQNLNDRLASYLDKVRALEESNYELEGKIKEWYEKHGNSHQGEPRDYSKYYKTIDDLKNQILNLTTDNANILLQIDNARLAADDFRLKYENEVALRQSVEADINGLRRVLDELTLTKADLEMQIESLTEELAYLKKNHEEEMKDLRNVSTGDVNVEMNAAPGVDLTQLLNNMRSQYEQLAEQNRKDAEAWFNEKSKELTTEIDNNIEQISSYKSEITELRRNVQALEIELQSQLALKQSLEASLAETEGRYCVQLSQIQAQISALEEQLQQIRAETECQNTEYQQLLDIKIRLENEIQTYRSLLEGEGSSGGGGRGGGSFGGGYGGGSSGGGSSGGGHGGGHGGSSGGGYGGGSSGGGSSGGGYGGGSSSGGHGGSSSGGYGGGSSGGGGGGYGGGSSGGGSSSGGGYGGGSSSGGHKSSSSGSVGESSSKGPRY
Work on B1 yielded a Kd of 1.4 to 1.7 µM.
